In patent US7919526B2, “Structured triglycerides and emulsions comprising same” (HTL High-Tech Lipids Ltd., priority 2005, dated 2011):

B1: Mucor miehei: lipase of Mucor miehei origin (Sigma), crude or immobilized (protein, UniProt P19515 95-363, looked up)
Lipase: SIDGGIRAATSQEINELTYYTTLSANSYCRTVIPGATWDCIHCDATEDLKIIKTWSTLIYDTNAMVARGDSEKTIYIVFRGSSSIRNWIADLTFVPVSYPPVSGTKVHKGFLDSYGEVQNELVATVLDQFKQYPSYKVAVTGHSLGGATALLCALDLYQREEGLSSSNLFLYTQGQPRVGDPAFANYVVSTGIPYRRTVNERDIVPHLPPAAFGFLHAGEEYWITDNSPETVQVCTSDLETSDCSNSIVPFTSVLDHLSYFGINTGLCT
modifications: crude or immobilized
B2: Rhizomucor miehei: lipase of Rhizomucor miehei origin (Sigma), crude or immobilized (protein, UniProt P19515 95-363, looked up)
Lipase: B1 Lipase
modifications: crude or immobilized
B3: Porcine pancreas lipase: lipase from porcine pancreas (Sigma), crude or immobilized (protein, UniProt P00591 1-450, looked up)
Pancreatic triacylglycerol …: SEVCFPRLGCFSDDAPWAGIVQRPLKILPWSPKDVDTRFLLYTNQNQNNYQELVADPSTITNSNFRMDRKTRFIIHGFIDKGEEDWLSNICKNLFKVESVNCICVDWKGGSRTGYTQASQNIRIVGAEVAYFVEVLKSSLGYSPSNVHVIGHSLGSHAAGEAGRRTNGTIERITGLDPAEPCFQGTPELVRLDPSDAKFVDVIHTDAAPIIPNLGFGMSQTVGHLDFFPNGGKQMPGCQKNILSQIVDIDGIWEGTRDFVACNHLRSYKYYADSILNPDGFAGFPCDSYNVFTANKCFPCPSEGCPQMGHYADRFPGKTNGVSQVFYLNTGDASNFARWRYKVSVTLSGKKVTGHILVSLFGNEGNSRQYEIYKGTLQPDNTHSDEFDSDVEVGDLQKVKFIWYNNNVINPTLPRVGASKITVERNDGKVYDFCSQETVREEVLLTLNPC
modifications: crude or immobilized

Columns and labels:
Format in all cases: biochemical
[1] = acidolysis activity of lipases using MCT and linoleic acid; conditions: MCT (1 gr), linoleic acid (0.55 gr), 500 mg enzyme preparation, 50° C., solvent-free
Description: (§1) The acidolysis activity of crude enzymes and enzymes adapted for synthetic reactions was assayed by adding an enzyme preparation (500 mg) into a 10 ml reaction solution containing MCT and a free fatty acid where the molar ratio between both substrates was 1:1. […] Samples (0.1 ml) were taken from the reaction mixture and mixed with 10 ml solvent comprised of acetone-dichloromethane at a ratio of 90:10. The samples were filtered through a Millipore filter (pore size 0.45 μm) and then injected to the HPLC.
(§2) The reaction progress was followed by analyzing the triglyceride composition in the reaction medium before and after the enzymatic reaction using an HPLC equipped with an ELSD (Evaporative light Scattering Detector). The HPLC was equipped with a LiChrosorb CH-18 Super (250×4 mm, 5 μm, MERCK). The HPLC running conditions were as follows: mobile phase A, Acetonitrile/Dichloromethane/Acetone (80/15/5); mobile phase B: […] (20/60/20). The flow rate was 1 ml/min and the gradient was 0 to 100% B for 30 min.
(§3) The substrate conversion was calculated as follows: Conversion %=100×(Sum of area of the 4 peaks representing the MCT at time zero)−([…])per Sum of area of the 4 peaks representing the MCT at time zero. The MCT conversion (%) was used as an indicative parameter for the efficiency of enzyme activity to obtain the desired product. Results
(§4) Tables 1-12 show the acidolysis activity of various lipases, which were screened for their ability to catalyze the reaction between MCT and free fatty acids in a solvent-free system according to the enzymatically catalyzed reaction presented in FIG. 1. All lipases were used in their crude form as supplied by the manufacturer (Sigma) or immobilized on an insoluble matrix. Immobilized lipases were activated before their use in the acidolysis reaction containing MCT and a long-chain fatty acid by pretreatment with a biphase system containing 50% triglyceride oil such as olive oil, soy oil and the like and 50% water. This pretreatment lead to the activation of the immobilized enzymes for synthetic applications. […]

[2] = acidolysis activity of lipases using MCT and EPA; conditions: for Conversion % (24 h): MCT (1 gr), EPA (0.6 gr), 500 mg enzyme preparation, 50° C., solvent-free; for efficiency of incorporation of EPA into MCT, in words: summary of Table 11
Description: as §1, §2, §3
(§5) Tables 1-12 show the acidolysis activity of various lipases, which were screened for their ability to catalyze the reaction between MCT and free fatty acids in a solvent-free system according to the enzymatically catalyzed reaction presented in FIG. 1. All lipases were used in their crude form as supplied by the manufacturer (Sigma) or immobilized on an insoluble matrix. Immobilized lipases were activated before their use in the acidolysis reaction containing MCT and a long-chain fatty acid by pretreatment with a biphase system containing 50% triglyceride oil such as olive oil, soy oil and the like and 50% water. This pretreatment lead to the activation of the immobilized enzymes for synthetic applications.
(§6) A typical enzyme activation and immobilization procedure used in this example is as follows: 1 g of a crude lipase preparation was dissolved in a 1 L of phosphate buffer solution of an appropriate pH according to the recommendation of the enzyme's manufacturer. 10 g of support matrix (silica, celite, an ion-exchange resin such as DUOLITE® A56, DUOLITE® A7, DUOLITE® XAD761, or Amberlite™ XAD16) were added into the stirred enzyme solution. The slurry was shaken for 8 hours at a temperature of 10° C. Hundred ml of cold acetone was optionally added into the stirred slurry in order to enhance the enzyme immobilization on the matrix surface. The immobilized enzyme was filtered of from the mixture and then freeze-dried or used wet for the following step. One g of freeze-dried immobilized lipase (water content of less than 2 weight %) or wet immobilized lipase (water content of approx. 20%) was added into a biphase system comprised of 5 g olive oil and 2 g buffer solution of pH7 at room temperature. The mixture was stirred for 10 min. The immobilized lipases was filtered of from the mixture, washed with cold acetone, dried in a desiccator and then used for the acidolysis reaction between MCT and a fatty acyl donor.
(§7) Reaction conditions: MCT (1 gr), caproic acid (0.23 gr), and 500 mg enzyme preparation. The reaction mixture was shaken and thermostated at 50° C. for 16 h. […]

[3] = acidolysis activity of lipases using MCT and stearic acid; conditions: MCT (1 gr), stearic acid (0.56 gr), 500 mg enzyme preparation, 50° C., solvent-free
Description: (§8) The acidolysis activity of crude enzymes and enzymes adapted for synthetic reactions was assayed by adding an enzyme preparation (500 mg) into a 10 ml reaction solution containing MCT and a free fatty acid where the molar ratio between both substrates was 1:1. The reaction mixture was shaken for 16 hours at a temperature of 50° C. Samples (0.1 ml) were taken from the reaction mixture and mixed with 10 ml solvent comprised of acetone-dichloromethane at a ratio of 90:10. The samples were filtered through a Millipore filter (pore size 0.45 μm) and then injected to the HPLC.
(§9) The reaction progress was followed by analyzing the triglyceride composition in the reaction medium before and after the enzymatic reaction using an HPLC equipped with an ELSD (Evaporative light Scattering Detector). The HPLC was equipped with a LiChrosorb CH-18 Super (250×4 mm, 5 μm, MERCK). The HPLC running conditions were as follows: mobile phase A, Acetonitrile/Dichloromethane/Acetone (80/15/5); mobile phase B: Acetone/Dichloromethane/Acetone (20/60/20). The flow rate was 1 ml/min and the gradient was 0 to 100% B for 30 min.
(§10) The substrate conversion was calculated as follows: Conversion %=100×(Sum of area of the 4 peaks representing the MCT at time zero)−(Sum of area of the 4 peaks representing the MCT after 16 h reaction time)per Sum of area of the 4 peaks representing the MCT at time zero. The MCT conversion (%) was used as an indicative parameter for the efficiency of enzyme activity to obtain the desired product.
All lipases were used in their crude form as supplied by the manufacturer (Sigma) or immobilized on an insoluble matrix. Immobilized lipases were activated before their use in the acidolysis reaction containing MCT and a long-chain fatty acid by pretreatment with a biphase system containing 50% triglyceride oil such as olive oil, soy oil and the like and 50% water. […]

[4] = acidolysis activity of lipases using MCT and oleic acid; conditions: MCT (1 gr), oleic acid (0.56 gr), 500 mg enzyme preparation, 50° C., solvent-free
Description: as §8, §9, §10

[5] = acidolysis activity of lipases using MCT and palmitic acid; conditions: MCT (1 gr), palmitic acid (0.51 gr), 500 mg enzyme preparation, 50° C., solvent-free
Description: as §1, §2, §3, §4

[6] = acidolysis activity of lipases using MCT and alpha-linolenic acid; conditions: MCT (1 gr), alpha-linolenic acid (0.55 gr), 500 mg enzyme preparation, 50° C., solvent-free
Description: as §8, §9, §10

[7] = acidolysis activity of lipases using MCT and DHA; conditions: MCT (1 gr), DHA (0.65 gr), 500 mg enzyme preparation, 50° C., solvent-free
Description: as §1, §2, §3, §4

[8] = acidolysis activity of lipases using MCT and lauric acid; conditions: MCT (1 gr), lauric acid (0.4 gr), 500 mg enzyme preparation, 50° C., solvent-free
Description: as §8, §9, §10
Reaction conditions as described in Table 1, with one modification, namely lauric acid (0.4 gr) was used as the fatty acid.

[9] = acidolysis activity of lipases using MCT and arachidonic acid; conditions: for Conversion % (24 h): MCT (1 gr), arachidonic acid (0.6 gr), 500 mg enzyme preparation, 50° C., solvent-free
Description: as §1, §2, §3, §5
A typical enzyme activation and immobilization procedure used in this example is as follows: 1 g of a crude lipase preparation was dissolved in a 1 L of phosphate buffer solution of an appropriate pH according to the recommendation of the enzyme's manufacturer. 10 g of support matrix (silica, celite, an ion-exchange resin such as DUOLITE® A56, DUOLITE® A7, DUOLITE® XAD761, or Amberlite™ XAD16) were added into the stirred enzyme solution. The slurry was shaken for 8 hours at a temperature of 10° C. Hundred ml of cold acetone was optionally added into the stirred slurry in order to enhance the enzyme immobilization on the matrix surface. […]

[10] = acidolysis activity of lipases using MCT and caproic acid; conditions: for Conversion % (24 h): MCT (1 gr), caproic acid (0.23 gr), 500 mg enzyme preparation, 50° C., solvent-free; for acidolysis activity in words, Caproic acid and MCT: summary of Table 1
Description: as §8, §9, §10

[11] = acidolysis activity of lipases using MCT and caprylic acid; conditions: for Conversion % (24 h): MCT (1 gr), caprylic acid (0.28 gr), 500 mg enzyme preparation, 50° C., solvent-free; for acidolysis activity in words, Caprylic acid and MCT: summary of Table 2
Description: as §1, §2, §3, §5, §6, §7

[12] = acidolysis activity of lipases using MCT and capric acid; conditions: MCT (1 gr), capric acid (0.34 gr), 500 mg enzyme preparation, 50° C., solvent-free
Description: as §1, §2, §3, §4

Row | Molecule | Conversion % [1] [%] | Conversion % (24 h) [2] [%] | efficiency of incorporation of EPA into MCT, in words [2] | Conversion % (24 h) [3] [%] | Conversion % (24 h) [4] [%] | Conversion % [5] [%] | Conversion % (24 h) [6] [%] | Conversion % (24 h) [7] [%] | Conversion % (24 h) [8] [%] | Conversion % (24 h) [9] [%] | Conversion % (24 h) [10] [%] | acidolysis activity in words, Caproic acid and MCT [10] | Conversion % (24 h) [11] [%] | acidolysis activity in words, Caprylic acid and MCT [11] | Conversion % [12] [%] | efficiency of incorporation of ARA into MCT, in words ([9]; summary of Table 10)
1 | B1 | 41 | 25 | the most efficient enzymes | 42 | 40 | 41 | 31 | 27 | 38 | 3 | 35 | preferred sources | 42 | reasonable acidolysis activity | 39 | 
2 | B2 | 35 | 30 | the most efficient enzymes | 37 | 43 | 33 | 39 | 16 | 39 | 15 | 31 | preferred sources | 37 | reasonable acidolysis activity | 37 | among the most efficient enzymes
3 | B3 | 5 | 3 |  | 5 | 4 | 1 | 6 | 5 | 6 | 2 | 6 |  | 5 |  | 5 | 
